To fix the notation:
B1: Myosin-9 (Homo sapiens), P35579 (parent)
chain: MAQQAADKYLYVDKNFINNPLAQADWAAKKLVWVPSDKSGFEPASLKEEVGEEAIVELVENGKKVKVNKDDIQKMNPPKFSKVEDMAELTCLNEASVLHNLKERYYSGLIYTYSGLFCVVINPYKNLPIYSEEIVEMYKGKKRHEMPPHIYAITDTAYRSMMQDREDQSILCTGESGAGKTENTKKVIQYLAYVASSHKSKKDQGELERQLLQANPILEAFGNAKTVKNDNSSRFGKFIRINFDVNGYIVGANIETYLLEKSRAIRQAKEERTFHIFYYLLSGAGEHLKTDLLLEPYNKYRFLSNGHVTIPGQQDKDMFQETMEAMRIMGIPEEEQMGLLRVISGVLQLGNIVFKKERNTDQASMPDNTAAQKVSHLLGINVTDFTRGILTPRIKVGRDYVQKAQTKEQADFAIEALAKATYERMFRWLVLRINKALDKTKRQGASFIGILDIAGFEIFDLNSFEQLCINYTNEKLQQLFNHTMFILEQEEYQREGIEWNFIDFGLDLQPCIDLIEKPAGPPGILALLDEECWFPKATDKSFVEKVMQEQGTHPKFQKPKQLKDKADFCIIHYAGKVDYKADEWLMKNMDPLNDNIATLLHQSSDKFVSELWKDVDRIIGLDQVAGMSETALPGAFKTRKGMFRTVGQLYKEQLAKLMATLRNTNPNFVRCIIPNHEKKAGKLDPHLVLDQLRCNGVLEGIRICRQGFPNRVVFQEFRQRYEILTPNSIPKGFMDGKQACVLMIKALELDSNLYRIGQSKVFFRAGVLAHLEEERDLKITDVIIGFQACCRGYLARKAFAKRQQQLTAMKVLQRNCAAYLKLRNWQWWRLFTKVKPLLQVSRQEEEMMAKEEELVKVREKQLAAENRLTEMETLQSQLMAEKLQLQEQLQAETELCAEAEELRARLTAKKQELEEICHDLEARVEEEEERCQHLQAEKKKMQQNIQELEEQLEEEESARQKLQLEKVTTEAKLKKLEEEQIILEDQNCKLAKEKKLLEDRIAEFTTNLTEEEEKSKSLAKLKNKHEAMITDLEERLRREEKQRQELEKTRRKLEGDSTDLSDQIAELQAQIAELKMQLAKKEEELQAALARVEEEAAQKNMALKKIRELESQISELQEDLESERASRNKAEKQKRDLGEELEALKTELEDTLDSTAAQQELRSKREQEVNILKKTLEEEAKTHEAQIQEMRQKHSQAVEELAEQLEQTKRVKANLEKAKQTLENERGELANEVKVLLQGKGDSEHKRKKVEAQLQELQVKFNEGERVRTELADKVTKLQVELDNVTGLLSQSDSKSSKLTKDFSALESQLQDTQELLQEENRQKLSLSTKLKQVEDEKNSFREQLEEEEEAKHNLEKQIATLHAQVADMKKKMEDSVGCLETAEEVKRKLQKDLEGLSQRHEEKVAAYDKLEKTKTRLQQELDDLLVDLDHQRQSACNLEKKQKKFDQLLAEEKTISAKYAEERDRAEAEAREKETKALSLARALEEAMEQKAELERLNKQFRTEMEDLMSSKDDVGKSVHELEKSKRALEQQVEEMKTQLEELEDELQATEDAKLRLEVNLQAMKAQFERDLQGRDEQSEEKKKQLVRQVREMEAELEDERKQRSMAVAARKKLEMDLKDLEAHIDSANKNRDEAIKQLRKLQAQMKDCMRELDDTRASREEILAQAKENEKKLKSMEAEMIQLQEELAAAERAKRQAQQERDELADEIANSSGKGALALEEKRRLEARIAQLEEELEEEQGNTELINDRLKKANLQIDQINTDLNLERSHAQKNENARQQLERQNKELKVKLQEMEGTVKSKYKASITALEAKIAQLEEQLDNETKERQAACKQVRRTEKKLKDVLLQVDDERRNAEQYKDQADKASTRLKQLKRQLEEAEEEAQRANASRRKLQRELEDATETADAMNREVSSLKNKLRRGDLPFVVPRRMARKGAGDGSDEEVDGKADGAEAKPAE
partner: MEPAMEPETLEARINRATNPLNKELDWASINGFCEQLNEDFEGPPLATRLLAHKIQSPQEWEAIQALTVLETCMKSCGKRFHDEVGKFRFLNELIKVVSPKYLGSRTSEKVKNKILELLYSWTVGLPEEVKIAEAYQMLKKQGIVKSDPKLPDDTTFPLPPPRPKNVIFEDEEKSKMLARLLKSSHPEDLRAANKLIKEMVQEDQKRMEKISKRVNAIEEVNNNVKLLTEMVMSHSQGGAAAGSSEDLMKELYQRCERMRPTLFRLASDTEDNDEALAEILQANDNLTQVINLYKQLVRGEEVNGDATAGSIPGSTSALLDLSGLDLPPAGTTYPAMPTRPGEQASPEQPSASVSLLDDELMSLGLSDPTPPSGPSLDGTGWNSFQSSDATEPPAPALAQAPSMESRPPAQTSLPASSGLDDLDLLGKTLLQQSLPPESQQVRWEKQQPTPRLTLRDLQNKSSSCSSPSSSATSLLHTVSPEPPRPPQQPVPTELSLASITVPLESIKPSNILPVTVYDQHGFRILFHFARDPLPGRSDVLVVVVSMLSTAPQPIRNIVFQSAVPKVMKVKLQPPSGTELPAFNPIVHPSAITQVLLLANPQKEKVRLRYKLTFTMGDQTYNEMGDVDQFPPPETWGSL
B2: Protein patched homolog 1 (Homo sapiens), Q13635 (parent)
chain: MASAGNAAEPQDRGGGGSGCIGAPGRPAGGGRRRRTGGLRRAAAPDRDYLHRPSYCDAAFALEQISKGKATGRKAPLWLRAKFQRLLFKLGCYIQKNCGKFLVVGLLIFGAFAVGLKAANLETNVEELWVEVGGRVSRELNYTRQKIGEEAMFNPQLMIQTPKEEGANVLTTEALLQHLDSALQASRVHVYMYNRQWKLEHLCYKSGELITETGYMDQIIEYLYPCLIITPLDCFWEGAKLQSGTAYLLGKPPLRWTNFDPLEFLEELKKINYQVDSWEEMLNKAEVGHGYMDRPCLNPADPDCPATAPNKNSTKPLDMALVLNGGCHGLSRKYMHWQEELIVGGTVKNSTGKLVSAHALQTMFQLMTPKQMYEHFKGYEYVSHINWNEDKAAAILEAWQRTYVEVVHQSVAQNSTQKVLSFTTTTLDDILKSFSDVSVIRVASGYLLMLAYACLTMLRWDCSKSQGAVGLAGVLLVALSVAAGLGLCSLIGISFNAATTQVLPFLALGVGVDDVFLLAHAFSETGQNKRIPFEDRTGECLKRTGASVALTSISNVTAFFMAALIPIPALRAFSLQAAVVVVFNFAMVLLIFPAILSMDLYRREDRRLDIFCCFTSPCVSRVIQVEPQAYTDTHDNTRYSPPPPYSSHSFAHETQITMQSTVQLRTEYDPHTHVYYTTAEPRSEISVQPVTVTQDTLSCQSPESTSSTRDLLSQFSDSSLHCLEPPCTKWTLSSFAEKHYAPFLLKPKAKVVVIFLFLGLLGVSLYGTTRVRDGLDLTDIVPRETREYDFIAAQFKYFSFYNMYIVTQKADYPNIQHLLYDLHRSFSNVKYVMLEENKQLPKMWLHYFRDWLQGLQDAFDSDWETGKIMPNNYKNGSDDGVLAYKLLVQTGSRDKPIDISQLTKQRLVDADGIINPSAFYIYLTAWVSNDPVAYAASQANIRPHRPEWVHDKADYMPETRLRIPAAEPIEYAQFPFYLNGLRDTSDFVEAIEKVRTICSNYTSLGLSSYPNGYPFLFWEQYIGLRHWLLLFISVVLACTFLVCAVFLLNPWTAGIIVMVLALMTVELFGMMGLIGIKLSAVPVVILIASVGIGVEFTVHVALAFLTAIGDKNRRAVLALEHMFAPVLDGAVSTLLGVLMLAGSEFDFIVRYFFAVLAILTILGVLNGLVLLPVLLSFFGPYPEVSPANGLNRLPTPSPEPPPSVVRFAMPPGHTHSGSDSSDSEYSSQTTVSGLSEELRHYEAQQGAGGPAHQVIVEATENPVFAHSTVVHPESRHHPPSNPRQQPHLDSGSLPPGRQGQQPRRDPPREGLWPPPYRPRRDAFEISTEGHSGPSNRARWGPRGARSHNPRNPASTAMGSSVPGYCQPITTVTASASVTVAVHPPPVPGPGRNPRGGLCPGYPETDHGLFEDPHVPFHVRCERRDSKVEVIELQDVECEERPRGSSSN
B3: BCL11 transcription factor A (Homo sapiens), Q9H165 (parent)
chain: MSRRKQGKPQHLSKREFSPEPLEAILTDDEPDHGPLGAPEGDHDLLTCGQCQMNFPLGDILIFIEHKRKQCNGSLCLEKAVDKPPSPSPIEMKKASNPVEVGIQVTPEDDDCLSTSSRGICPKQEHIADKLLHWRGLSSPRSAHGALIPTPGMSAEYAPQGICKDEPSSYTCTTCKQPFTSAWFLLQHAQNTHGLRIYLESEHGSPLTPRVGIPSGLGAECPSQPPLHGIHIADNNPFNLLRIPGSVSREASGLAEGRFPPTPPLFSPPPRHHLDPHRIERLGAEEMALATHHPSAFDRVLRLNPMAMEPPAMDFSRRLRELAGNTSSPPLSPGRPSPMQRLLQPFQPGSKPPFLATPPLPPLQSAPPPSQPPVKSKSCEFCGKTFKFQSNLVVHRRSHTGEKPYKCNLCDHACTQASKLKRHMKTHMHKSSPMTVKSDDGLSTASSPEPGTSDLVGSASSALKSVVAKFKSENDPNLIPENGDEEEEEDDEEEEEEEEEEEEELTESERVDYGFGLSLEAARHHENSSRGAVVGVGDESRALPDVMQGMVLSSMQHFSEAFHQVLGEKHKRGHLAEAEGHRDTCDEDSVAGESDRIDDGTVNGRGCSPGESASGGLSKKLLLGSPSSLSPFSKRIKLEKEFDLPPAAMPNTENVYSQWLAGYAASRQLKDPFLSFGDSRQSPFASSSEHSSENGSLRFSTPPGELDGGISGRSGTGSGGSTPHISGPGPGRPSSKEGRRSDTCEYCGKVFKNCSNLTVHRRSHTGERPYKCELCNYACAQSSKLTRHMKTHGQVGKDVYKCEICKMPFSVYSTLEKHMKKWHSDRVLNNDIKTE
B4: "Poly(A) RNA polymerase, mitochondrial" (Homo sapiens), Q9NVV4 (parent)
chain: MAVPGVGLLTRLNLCARRRTRVQRPIVRLLSCPGTVAKDLRRDEQPSGSVETGFEDKIPKRRFSEMQNERREQAQRTVLIHCPEKISENKFLKYLSQFGPINNHFFYESFGLYAVVEFCQKESIGSLQNGTHTPSTAMETAIPFRSRFFNLKLKNQTSERSRVRSSNQLPRSNKQLFELLCYAESIDDQLNTLLKEFQLTEENTKLRYLTCSLIEDMAAAYFPDCIVRPFGSSVNTFGKLGCDLDMFLDLDETRNLSAHKISGNFLMEFQVKNVPSERIATQKILSVLGECLDHFGPGCVGVQKILNARCPLVRFSHQASGFQCDLTTNNRIALTSSELLYIYGALDSRVRALVFSVRCWARAHSLTSSIPGAWITNFSLTMMVIFFLQRRSPPILPTLDSLKTLADAEDKCVIEGNNCTFVRDLSRIKPSQNTETLELLLKEFFEYFGNFAFDKNSINIRQGREQNKPDSSPLYIQNPFETSLNISKNVSQSQLQKFVDLARESAWILQQEDTDRPSISSNRPWGLVSLLLPSAPNRKSFTKKKSNKFAIETVKNLLESLKGNRTENFTKTSGKRTISTQT

The variants in one experiment derive from B1. Conditions: with gga1_human GGA1, Q9UJY5.
In the case of D1424H, the “effect of a mutation on the interaction” value is “decreasing interaction strength”.

A further experiment covers variants of B2. Conditions: with ppia_human PPIA.
Consider P1180Q, for which the “effect of a mutation on the interaction” value is “decreasing interaction strength”.

The next experiment covers variants of B3. Conditions: with clh1_human CLTC.
In the case of C48F, the “effect of a mutation on the interaction” value is recorded as “increasing interaction strength”.

In another experiment the parent is B4. The following applies: with eps15_human EPS15, P42566.
Chain of eps15_human EPS15, P42566 (P42566 whole entry): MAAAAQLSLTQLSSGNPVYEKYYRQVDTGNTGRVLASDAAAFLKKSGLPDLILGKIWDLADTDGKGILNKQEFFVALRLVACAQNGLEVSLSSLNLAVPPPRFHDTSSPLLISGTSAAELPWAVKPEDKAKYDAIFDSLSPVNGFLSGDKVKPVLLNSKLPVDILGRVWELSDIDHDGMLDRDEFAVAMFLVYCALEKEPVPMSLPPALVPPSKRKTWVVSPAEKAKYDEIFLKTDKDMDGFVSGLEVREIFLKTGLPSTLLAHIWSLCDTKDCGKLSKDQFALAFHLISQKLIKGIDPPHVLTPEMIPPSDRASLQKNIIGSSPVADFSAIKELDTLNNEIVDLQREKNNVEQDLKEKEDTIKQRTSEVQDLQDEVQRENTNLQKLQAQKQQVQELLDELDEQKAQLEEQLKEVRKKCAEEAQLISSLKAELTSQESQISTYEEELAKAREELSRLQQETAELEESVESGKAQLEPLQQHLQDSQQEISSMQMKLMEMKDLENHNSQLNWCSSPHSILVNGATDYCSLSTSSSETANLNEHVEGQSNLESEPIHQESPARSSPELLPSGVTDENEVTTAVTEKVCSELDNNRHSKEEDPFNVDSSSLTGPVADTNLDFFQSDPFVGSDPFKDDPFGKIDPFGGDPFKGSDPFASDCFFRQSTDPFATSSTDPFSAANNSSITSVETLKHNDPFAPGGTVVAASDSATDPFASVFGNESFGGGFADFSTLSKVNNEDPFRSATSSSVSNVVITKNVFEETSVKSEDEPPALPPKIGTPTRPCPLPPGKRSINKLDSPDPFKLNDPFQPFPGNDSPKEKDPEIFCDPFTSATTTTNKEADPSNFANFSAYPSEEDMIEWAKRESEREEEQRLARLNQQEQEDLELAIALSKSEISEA
In the case of N478D, the “effect of a mutation on the interaction” value is on record as “decreasing interaction strength”.
